Assay results as given in patent US20230391883A1 (BEIGENE SWITZERLAND, published 2023).
Changes are numbered by the printed parent chain.

T1: TIGIT-huIgG1 (human, UniProt Q495A1 22-141)
T1 construct: also called Human Fc-tagged TIGIT; TIGIT-huIgG1 fusion protein
T1 sequence: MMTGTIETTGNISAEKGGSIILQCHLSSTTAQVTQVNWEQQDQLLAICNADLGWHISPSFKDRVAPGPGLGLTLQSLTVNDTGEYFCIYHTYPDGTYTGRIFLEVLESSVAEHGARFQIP

T2: full-length human TIGIT on cells (human, UniProt Q495A1 22-244)
T2 construct: Used for engineered cells (NK92mi/TIGIT, NK92MI/TIGIT-DNAM-1, Jurkat/TIGIT) and for TIGIT on human blood cells; also called native TIGIT; huTIGIT
T2 sequence: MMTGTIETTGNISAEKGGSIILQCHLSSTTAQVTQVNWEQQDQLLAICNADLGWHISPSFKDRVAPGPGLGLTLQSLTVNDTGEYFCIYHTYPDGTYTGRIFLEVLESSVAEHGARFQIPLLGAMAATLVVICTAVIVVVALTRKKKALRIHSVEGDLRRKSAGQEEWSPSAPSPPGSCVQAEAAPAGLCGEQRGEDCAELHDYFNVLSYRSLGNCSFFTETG

T3: human TIGIT (form in the assay not stated) (human, UniProt Q495A1 22-141, limits assumed)
T3 construct: whole entry named
T3 sequence: T1 sequence

T4: TIGIT-mIgG2a (human; mouse, UniProt Q495A1 22-141)
T4 construct: also called soluble TIGIT; TIGIT-mIgG2a fusion protein
T4 sequence: T1 sequence

T5: TIGIT-his (human, UniProt Q495A1 22-141)
T5 construct: also called human TIGIT; not shown: his tag
T5 sequence: T1 sequence

T6: humanized TIGIT of humanized TIGIT knock-in mice, on CD3+ splenocytes
T6 chain: T1 sequence

B1: mu1217 (antibody, V domains shown)
VH: EVKLVESGGGLVQPGGSLKLSCATSGFTFSDYYMYWIRQTPEKRLEWVAYITKGGGSTYYPDTVKGRFTISRDNAKNTLYLQVSRLKSEDTAIYYCARQTNYDFTMDYWGQGTSVTVSS
VL: DIVMTQSHKFMSTSVGDRVSIICKASQDVGTSVAWYQQKPGQSPNLLIYWASARHTGVPDRFTGSGSGTDFTLTISNVQSEDLADYFCQQYSSYPLTFGAGTKLELK
notes: Purified murine hybridoma antibody; also called murine anti-TIGIT mAb mu1217
B2: ch1217 (antibody, V domains shown)
VH: B1 VH
VL: B1 VL
notes: Chimeric: mu1217 variable domains fused to human IgG1mf/kappa constant regions; not shown: human kappa light chain constant region
B3: hu1217-1-1 (antibody, V domains shown)
VH: EVQLVESGGGLVQPGGSLRLSCATSGFTFSDYYMYWIRQAPGKGLEWVAYITKGGGSTYYPDSVKGRFTISRDNAKNTLYLQMNSLRAEDTAVYYCARQTNYDFTMDYWGQGTLVTVSS
VL: EIVMTQSPATLSVSPGERATLSCKASQDVGTSVAWYQQKPGQAPRLLIYWASARHTGVPARFSGSGSGTEFTLTISSLQSEDFAVYYCQQYSSYPLTFGGGTKVEIK
notes: Full-length human IgG1mf/kappa format; not shown: human kappa light chain constant region
B4: hu1217-2-2/IgG1wt (antibody, V domains shown)
VH: B3 VH with T24A, I37V
VL: B3 VL with V58I
notes: Humanized version with a wild-type IgG1 Fc region and the same VH and VL as hu1217-2-2/IgG1mf
B5: hu1217-2-2 (as named in Examples 12 to 14, Fc format not stated) (antibody, V domains shown)
VH: B3 VH with T24A, I37V
VL: B3 VL with V58I
notes: kept apart from m7 and m8 for that reason; also called Antibody hu1217-2-2
B6: hu1217-2-2/IgG1mf (antibody, V domains shown)
VH: B3 VH with T24A, I37V
VL: B3 VL with V58I
notes: not shown: human kappa light chain constant region

Legend:
TIGIT-huIgG1 [1] = target: T1, TIGIT-huIgG1; experiment: SPR (BIAcore T-200); human Fc-tagged TIGIT captured by anti-human IgG, antibody as analyte; column head prints nM, koff/kon gives M
Experimental: (§1) Briefly, anti-human IgG antibody was immobilized on an activated CM5 biosensor chip (Cat. No.: BR100530, GE Life Sciences). Human Fc-tagged TIGIT was flowed over the chip surface and captured by anti-human IgG antibody. Then a serial dilution (0.12 nM to 10 nM) of purified murine antibodies were flowed over the chip surface and changes in surface plasmon resonance signals were analyzed to calculate the association rates (kₒₙ) and dissociation rates (koff) by using the one-to-one Langmuir binding model (BIA Evaluation Software, GE Life Sciences). The equilibrium dissociation constant (KD) was calculated as the ratio koff/kₒₙ.

TIGIT-huIgG1 [2] = target: T1, TIGIT-huIgG1; experiment: SPR (BIAcore T-200); human Fc-tagged TIGIT captured by anti-human IgG, antibody as analyte
Experimental: as §1

[3] = target: T2, full-length human TIGIT on cells; experiment: flow cytometry on living NK92mi/TIGIT cells, goat anti-human IgG detection; Test 1
Experimental: (§2) To evaluate the binding activity of anti-TIGIT antibodies to native TIGIT on living cells, NK92mi cells were engineered to over-express human TIGIT. Living NK92mi/TIGIT cells were seeded in 96-well plate and were incubated with a series of dilutions of anti-TIGIT antibodies. Goat anti-Human IgG was used as secondary antibody to detect antibody binding to the cell surface. EC₅₀ values for dose-dependent binding to human native TIGIT were determined by fitting the dose-response data to the four-parameter logistic model with GraphPad Prism. As show in FIG. 4A-B and Table 6.

[4] = target: T3, human TIGIT (form in the assay not …); experiment: SPR; antibody captured on anti-human Fc surface, TIGIT analyte not named; Test 1
Source text: (§3) For affinity determination, antibodies were captured by anti-human Fc surface, and used in the affinity-assay based on surface plasmon resonance (SPR) technology.

[5] = target: T3, human TIGIT (form in the assay not …); experiment: SPR; antibody captured on anti-human Fc surface, TIGIT analyte not named; Test 2
Source text: as §3

[6] = target: T3, human TIGIT (form in the assay not …); experiment: SPR; antibody captured on anti-human Fc surface, TIGIT analyte not named; mean of Tests 1 and 2
Source text: as §3

[7] = target: T2, full-length human TIGIT on cells; experiment: flow cytometry on living NK92mi/TIGIT cells, goat anti-human IgG detection; Test 2
Experimental: as §2

TIGIT-mIgG2a [8] = target: T4, TIGIT-mIgG2a; experiment: flow cytometry; blockade of soluble TIGIT binding to PVR on HEK293/PVR cells
Source text: (§4) To determine whether anti-TIGIT antibodies could block TIGIT-PVR and TIGIT-PVR-L2 interactions, HEK293 cells were engineered to express high levels of PVR or PVR-L2. The resultant cell lines were named HEK293/PVR and HEK293/PVR-L2, respectively. […] The blockade of TIGIT-ligand interaction was quantitatively measured by adding serially diluted anti-TIGIT antibodies.

TIGIT-mIgG2a [9] = target: T4, TIGIT-mIgG2a; experiment: flow cytometry; blockade of soluble TIGIT binding to PVR-L2 on HEK293/PVR-L2 cells
Source text: as §4

TIGIT-his [10] = target: T5, TIGIT-his; experiment: SPR; antibody immobilized on CM5 chip, TIGIT-his as analyte, HBS pH 6.0
TIGIT-his [11] = target: T5, TIGIT-his; experiment: SPR; antibody immobilized on CM5 chip, TIGIT-his as analyte, HBS pH 7.4; column head prints nM, koff/kon gives M
TIGIT-his [12] = target: T5, TIGIT-his; experiment: SPR; antibody immobilized on CM5 chip, TIGIT-his as analyte, HBS pH 7.4
TIGIT-his [13] = target: T5, TIGIT-his; experiment: SPR; antibody immobilized on CM5 chip, TIGIT-his as analyte, HBS pH 6.0; column head prints nM, koff/kon gives M
[14] = target: T6, humanized TIGIT of humanized TIGIT …; experiment: TIGIT receptor occupancy assay on CD3+ splenocytes from humanized TIGIT knock-in mice
[15] = target: T2, full-length human TIGIT on cells; experiment: TIGIT receptor occupancy assay on CD3+ human peripheral blood mononuclear cells; CD3+ human peripheral blood mononuclear cells
[16] = target: T3, human TIGIT (form in the assay not …); experiment: SPR; antibody captured on anti-human Fc surface, TIGIT analyte not named; Test 1; Test 1
Source text: as §3

Binder | EC50 [3] [µg/mL] | Kd [4] [nM] | koff [4] [s⁻¹] | kon [4] [M⁻¹ s⁻¹] | Kd [5] [nM] | koff [5] [s⁻¹] | kon [5] [M⁻¹ s⁻¹] | Kd [6] [nM] | EC50 [7] [µg/mL] | IC50 (TIGIT-mIgG2a [8]) [µg/mL] | IC50 (TIGIT-mIgG2a [9]) [µg/mL] | further results
B1 |  |  |  |  |  |  |  |  |  |  |  | Kd (TIGIT-huIgG1 [1]): 0.00915 nM; koff (TIGIT-huIgG1 [2]): 3.96e-05 s⁻¹; kon (TIGIT-huIgG1 [2]): 4.33e+06 M⁻¹ s⁻¹
B2 | 0.1 | 0.283 | 0.000443 | 1.56e+06 |  |  |  |  |  |  |  | 
B3 | 0.114 | 0.309 | 0.000448 | 1.45e+06 | 0.52 | 0.000694 | 1.33e+06 | 0.415 | 0.084 |  |  | 
B4 |  |  |  |  |  |  |  |  |  | 0.64 | 0.25 | koff (TIGIT-his [10]): 7.6e-05 s⁻¹; kon (TIGIT-his [10]): 2.54e+06 M⁻¹ s⁻¹; Kd (TIGIT-his [11]): 0.219 nM; koff (TIGIT-his [12]): 9.53e-05 s⁻¹; kon (TIGIT-his [12]): 434000 M⁻¹ s⁻¹; Kd (TIGIT-his [13]): 0.0299 nM
B5 |  |  |  |  |  |  |  |  |  |  |  | EC50 [14]: 0.0488 µg/mL; EC50 [15]: 0.0632 µg/mL
B6 |  | 0.127 | 0.000229 |  | 0.404 | 0.000608 | 1.5e+06 | 0.266 | 0.068 | 0.55 | 0.18 | kon [16]: 1.8e+06 M⁻¹ s⁻¹
